The text below walks through data of FireProtDB (doi:10.1016/j.jmb.2007.09.088).

Chitinase A1 L566A, P20533, sequence (P20533 whole entry L566A): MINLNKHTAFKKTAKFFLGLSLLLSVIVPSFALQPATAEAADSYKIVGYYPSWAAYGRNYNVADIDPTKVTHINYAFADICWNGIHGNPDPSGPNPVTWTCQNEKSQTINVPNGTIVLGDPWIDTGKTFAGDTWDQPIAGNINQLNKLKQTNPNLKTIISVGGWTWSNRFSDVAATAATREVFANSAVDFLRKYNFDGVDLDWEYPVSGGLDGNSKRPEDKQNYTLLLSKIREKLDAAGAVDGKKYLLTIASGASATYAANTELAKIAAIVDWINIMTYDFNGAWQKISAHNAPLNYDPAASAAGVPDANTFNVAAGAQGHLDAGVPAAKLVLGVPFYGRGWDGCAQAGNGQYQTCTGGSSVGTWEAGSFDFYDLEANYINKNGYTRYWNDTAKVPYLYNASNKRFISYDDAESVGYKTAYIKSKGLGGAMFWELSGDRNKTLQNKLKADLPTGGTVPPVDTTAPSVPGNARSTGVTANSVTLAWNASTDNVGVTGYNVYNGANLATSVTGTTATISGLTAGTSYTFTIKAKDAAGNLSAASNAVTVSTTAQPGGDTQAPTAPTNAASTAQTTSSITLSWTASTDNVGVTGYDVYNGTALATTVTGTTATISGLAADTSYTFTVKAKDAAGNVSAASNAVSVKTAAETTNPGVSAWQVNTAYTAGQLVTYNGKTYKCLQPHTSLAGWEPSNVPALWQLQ
Chitinase A1 V640A, P20533, sequence (P20533 whole entry V640A): as the sequence (P20533 whole entry L566A) above, with A566L, V640A counted along it
Chitinase A1 L578A, P20533, sequence (P20533 whole entry L578A): as the sequence (P20533 whole entry L566A) above, with A566L, L578A counted along it
Chitinase A1 L614A, P20533, sequence (P20533 whole entry L614A): as the sequence (P20533 whole entry L566A) above, with A566L, L614A counted along it
Chitinase A1 Y592L, P20533, sequence (P20533 whole entry Y592L): as the sequence (P20533 whole entry L566A) above, with A566L, Y592L counted along it
Chitinase A1 Y620L, P20533, sequence (P20533 whole entry Y620L): as the sequence (P20533 whole entry L566A) above, with A566L, Y620L counted along it
Chitinase A1 V642A, P20533, sequence (P20533 whole entry V642A): as the sequence (P20533 whole entry L566A) above, with A566L, V642A counted along it
Chitinase A1 Y592F, P20533, sequence (P20533 whole entry Y592F): as the sequence (P20533 whole entry L566A) above, with A566L, Y592F counted along it
Chitinase A1 A626G, P20533, sequence (P20533 whole entry A626G): as the sequence (P20533 whole entry L566A) above, with A566L, A626G counted along it
Chitinase A1 V624A, P20533, sequence (P20533 whole entry V624A): as the sequence (P20533 whole entry L566A) above, with A566L, V624A counted along it
Chitinase A1 S568A, P20533, sequence (P20533 whole entry S568A): as the sequence (P20533 whole entry L566A) above, with A566L, S568A counted along it
Chitinase A1 V604A, P20533, sequence (P20533 whole entry V604A): as the sequence (P20533 whole entry L566A) above, with A566L, V604A counted along it
Chitinase A1 A609G, P20533, sequence (P20533 whole entry A609G): as the sequence (P20533 whole entry L566A) above, with A566L, A609G counted along it
Chitinase A1 I611A, P20533, sequence (P20533 whole entry I611A): as the sequence (P20533 whole entry L566A) above, with A566L, I611A counted along it
Chitinase A1 N596A, P20533, sequence (P20533 whole entry N596A): as the sequence (P20533 whole entry L566A) above, with A566L, N596A counted along it
Chitinase A1 F622L, P20533, sequence (P20533 whole entry F622L): as the sequence (P20533 whole entry L566A) above, with A566L, F622L counted along it
Chitinase A1 V594A, P20533, sequence (P20533 whole entry V594A): as the sequence (P20533 whole entry L566A) above, with A566L, V594A counted along it
Chitinase A1 T602A, P20533, sequence (P20533 whole entry T602A): as the sequence (P20533 whole entry L566A) above, with A566L, T602A counted along it
Chitinase A1 Y620F, P20533, sequence (P20533 whole entry Y620F): as the sequence (P20533 whole entry L566A) above, with A566L, Y620F counted along it
Chitinase A1 I576A, P20533, sequence (P20533 whole entry I576A): as the sequence (P20533 whole entry L566A) above, with A566L, I576A counted along it
Chitinase A1 S637A, P20533, sequence (P20533 whole entry S637A): as the sequence (P20533 whole entry L566A) above, with A566L, S637A counted along it
Chitinase A1 V589A, P20533, sequence (P20533 whole entry V589A): as the sequence (P20533 whole entry L566A) above, with A566L, V589A counted along it

The conditions of the series: Niallia circulans; pH 5; 25 °C; Urea; Fluorescence; Sodium acetate 50mM; transition: 2; reversible: yes; structure 1K85.
Chitinase A1 L566A, P20533: the “ddG of mutation (higher = less stable)” value was 2.52 kcal/mol, the denaturant m value stood at 1.19 kcal/mol/M, the “denaturant midpoint (higher = more stable)” value (“denaturant midpoint” below) was 4.01 M and the unfolding free energy was found to be 4.18 kcal/mol.

As to Chitinase A1 Y620L, P20533, the “ddG of mutation (higher = less stable)” value came out at 4.38 kcal/mol, the denaturant m value amounted to 1.26 kcal/mol/M, the “denaturant midpoint” value came to 2.4 M and the unfolding free energy stood at 2.32 kcal/mol.

On to Chitinase A1 I611A, P20533, for which the “ddG of mutation (higher = less stable)” value came to 3.63 kcal/mol, the denaturant m value came to 1.13 kcal/mol/M, the “denaturant midpoint” value was 3.05 M and the unfolding free energy is 3.07 kcal/mol.

With Chitinase A1 L578A, P20533, the “ddG of mutation (higher = less stable)” value was 5.54 kcal/mol, the denaturant m value was found to be 1.16 kcal/mol/M, the “denaturant midpoint” value stood at 1.39 M and the unfolding free energy turned out to be 1.16 kcal/mol.

For the substance Chitinase A1 Y592L, P20533, the “ddG of mutation (higher = less stable)” value was 5.97 kcal/mol, the denaturant m value amounted to 1.46 kcal/mol/M, the “denaturant midpoint” value came out at 1.02 M and the unfolding free energy is 0.73 kcal/mol.

For Chitinase A1 F622L, P20533, the “ddG of mutation (higher = less stable)” value was 2.5 kcal/mol, the denaturant m value was 1.08 kcal/mol/M, the “denaturant midpoint” value turned out to be 4.03 M and the unfolding free energy amounted to 4.2 kcal/mol.

As for Chitinase A1 S568A, P20533, the “ddG of mutation (higher = less stable)” value was -0.1 kcal/mol, the denaturant m value turned out to be 1 kcal/mol/M, the “denaturant midpoint” value was 6.29 M and the unfolding free energy was determined as 6.8 kcal/mol.

As to Chitinase A1 A626G, P20533, the “ddG of mutation (higher = less stable)” value worked out at 1.88 kcal/mol, the denaturant m value is 1.22 kcal/mol/M, the “denaturant midpoint” value was 4.57 M and the unfolding free energy stood at 4.82 kcal/mol.

In the case of Chitinase A1 Y620F, P20533, the “ddG of mutation (higher = less stable)” value is 1.52 kcal/mol, the denaturant m value came out at 1.31 kcal/mol/M, the “denaturant midpoint” value was determined as 4.88 M and the unfolding free energy amounted to 5.18 kcal/mol.

Regarding Chitinase A1 V589A, P20533, the “ddG of mutation (higher = less stable)” value worked out at 1.77 kcal/mol, the denaturant m value amounted to 1.16 kcal/mol/M, the “denaturant midpoint” value was determined as 4.66 M and the unfolding free energy is 4.93 kcal/mol.

Consider Chitinase A1 I576A, P20533, for which the “ddG of mutation (higher = less stable)” value came to 3.11 kcal/mol, the denaturant m value came out at 1.15 kcal/mol/M, the “denaturant midpoint” value came to 3.5 M and the unfolding free energy is 3.59 kcal/mol.

Take Chitinase A1 T602A, P20533: the “ddG of mutation (higher = less stable)” value was -1.49 kcal/mol, the denaturant m value was 0.89 kcal/mol/M, the “denaturant midpoint” value was 7.49 M and the unfolding free energy was found to be 8.19 kcal/mol.

As to Chitinase A1 V624A, P20533, the “ddG of mutation (higher = less stable)” value came to 4.07 kcal/mol, the denaturant m value stood at 1.19 kcal/mol/M, the “denaturant midpoint” value is 2.67 M and the unfolding free energy was 2.63 kcal/mol.

As to Chitinase A1 V604A, P20533, the “ddG of mutation (higher = less stable)” value came to 1.58 kcal/mol, the denaturant m value came out at 1.1 kcal/mol/M, the “denaturant midpoint” value came out at 4.83 M and the unfolding free energy was 5.12 kcal/mol.

For Chitinase A1 V594A, P20533, the “ddG of mutation (higher = less stable)” value was 4.19 kcal/mol, the denaturant m value amounted to 1.27 kcal/mol/M, the “denaturant midpoint” value is 2.56 M and the unfolding free energy worked out at 2.51 kcal/mol.

Regarding Chitinase A1 L614A, P20533, the “ddG of mutation (higher = less stable)” value stood at 5.26 kcal/mol, the denaturant m value was found to be 1.13 kcal/mol/M, the “denaturant midpoint” value was 1.63 M and the unfolding free energy turned out to be 1.44 kcal/mol.

Take Chitinase A1 N596A, P20533: the “ddG of mutation (higher = less stable)” value was 1 kcal/mol, the denaturant m value amounted to 0.99 kcal/mol/M, the “denaturant midpoint” value was 5.33 M and the unfolding free energy turned out to be 5.7 kcal/mol.

Chitinase A1 A609G, P20533: the “ddG of mutation (higher = less stable)” value came out at 2.33 kcal/mol, the denaturant m value came out at 1.18 kcal/mol/M, the “denaturant midpoint” value came out at 4.18 M and the unfolding free energy amounted to 4.37 kcal/mol.

As for Chitinase A1 Y592F, P20533, the “ddG of mutation (higher = less stable)” value was 1.77 kcal/mol, the denaturant m value was 1.25 kcal/mol/M, the “denaturant midpoint” value is 4.66 M and the unfolding free energy was 4.93 kcal/mol.

As to Chitinase A1 V642A, P20533, the “ddG of mutation (higher = less stable)” value is 1.44 kcal/mol, the denaturant m value is 1.15 kcal/mol/M, the “denaturant midpoint” value amounted to 4.95 M and the unfolding free energy stood at 5.26 kcal/mol.

In the case of Chitinase A1 V640A, P20533, the “ddG of mutation (higher = less stable)” value stood at 1.66 kcal/mol, the denaturant m value stood at 1.22 kcal/mol/M, the “denaturant midpoint” value came out at 4.76 M and the unfolding free energy was determined as 5.04 kcal/mol.

In the case of Chitinase A1 S637A, P20533, the “ddG of mutation (higher = less stable)” value came out at 1.42 kcal/mol, the denaturant m value came to 1.13 kcal/mol/M, the “denaturant midpoint” value came out at 4.97 M and the unfolding free energy came out at 5.28 kcal/mol.
